The values that follow come from patent US20100158922A1.

The assay deals with recombinant human IFNγ (human) (UniProt P01579). The experiment in a line: cell-based or functional assay.
Sequence of recombinant human IFNγ (human) (P01579 24-166 limits assumed): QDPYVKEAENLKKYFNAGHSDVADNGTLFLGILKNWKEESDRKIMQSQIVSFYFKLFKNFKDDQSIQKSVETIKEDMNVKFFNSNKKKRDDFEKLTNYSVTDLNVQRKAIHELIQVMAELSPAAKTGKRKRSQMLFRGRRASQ

B1: AC1.2R3P7_D3 scFv (scFv, part only; not given: scFv linker, part only)
scFv, part: EVQLLESGGGLVQPGGSLKLSCAASGFTFSSNAMSWVRQAPGKGLEWVSTLTGSGGTAYYADSVEGRFSISRDNSKNTLYLQMNSLRAEDTAVYYCAKGTELVGGGLDNWGQGTLVTVSSNFMLTQPHSLSESPGKTVTISCTGSGGSIATNYVQWYQQRPGSAPTTVIHEDNQRPSGVPDRFSGSIDGSSNSASLTISGLQPEDEADYYCQSYDSDNHHVVFGGGTKLTVLG
Take B1: the Percentage inhibition of IFNγ-induced reporter gene expression at 0.011 nM scFv is 20%, the Percentage inhibition of IFNγ-induced reporter gene expression at 0.043 nM scFv was found to be 28%, the Percentage inhibition of IFNγ-induced reporter gene expression at 0.17 nM scFv was determined as 36% and the Percentage inhibition of IFNγ-induced reporter gene expression at 0.68 nM scFv came out at 55%. Besides, the Percentage inhibition of IFNγ-induced reporter gene expression at 2.7 nM scFv came to 69%.
